Source: patent US20040229298A1
Several values for one entry are separate records, joined by “and”; a condition that tells them apart may be missing. Equal values may be shown once. Ends that are not written are not given here.

Tests used:
[1] = molecular target: GST-DLG2 PDZ domain 3 (human); assay: Matrix/G assay ELISA, E6 peptide titrated on GST-PDZ
[2] = molecular target: GST-DLG3 PDZ domains 1-2 (human), Q92796; assay: as above
[3] = molecular target: GST-MAGI1 PDZ domain 2 (human); assay: as above
[4] = molecular target: GST-PSD95 PDZ domain 2 (human); assay: as above
[5] = molecular target: GST-PSD95 PDZ domains 1-3 (human), P78352; assay: as above
[6] = molecular target: GST-SAST1 PDZ domain (human), Q9Y2H9; assay: as above
GST-SAST1 PDZ domain (human), Q9Y2H9, sequence (Q9Y2H9 other isoform, or with tags, fused parts or gaps limits assumed): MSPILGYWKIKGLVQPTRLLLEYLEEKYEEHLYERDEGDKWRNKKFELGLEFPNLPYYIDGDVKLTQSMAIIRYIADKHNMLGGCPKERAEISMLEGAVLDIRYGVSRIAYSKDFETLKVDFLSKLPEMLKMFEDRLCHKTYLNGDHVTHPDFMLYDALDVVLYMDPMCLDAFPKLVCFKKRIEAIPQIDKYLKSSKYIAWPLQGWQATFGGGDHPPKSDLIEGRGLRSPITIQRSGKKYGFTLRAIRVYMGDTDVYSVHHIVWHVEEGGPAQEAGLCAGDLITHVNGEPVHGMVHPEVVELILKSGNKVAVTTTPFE

[7] = molecular target: GST-SAST2 PDZ domain 1 (human); assay: as above
[8] = molecular target: GST-SIP1 PDZ domain 1 (human); assay: as above
[9] = molecular target: GST-CASK PDZ domain 1 (human); assay: G assay ELISA, 10 uM biotin peptide on anti-GST-captured GST-PDZ
[10] = molecular target: GST-DLG1 PDZ domain 1 (human); assay: as above
[11] = molecular target: GST-EBP50 PDZ domain 1, clone #167.2 (human); assay: as above
[12] = molecular target: GST-EBP50 PDZ domain 1, clone #311.1 (human); assay: as above
[13] = molecular target: GST-FLJ00011 PDZ domain 1 (human); assay: as above
[14] = molecular target: GST-FLJ11215 PDZ domain 1 (human); assay: as above
[15] = molecular target: GST-FLJ12615 PDZ domain 1 (human); assay: as above
[16] = molecular target: GST-HTRA 3 PDZ domain 1 (human); assay: as above
[17] = molecular target: GST-INADL PDZ domain 8 (human); assay: as above
[18] = molecular target: GST-KIAA0147 PDZ domain 2 (human); assay: as above
[19] = molecular target: GST-KIAA0147 PDZ domain 4 (human); assay: as above
[20] = molecular target: GST-KIAA0545 PDZ domain 1 (human); assay: as above
[21] = molecular target: GST-KIAA0561 PDZ domain 1 (human); assay: as above
[22] = molecular target: GST-LIM-RIL PDZ domain 1 (human); assay: as above
[23] = molecular target: GST-Numb BP PDZ domain 1 (human); assay: as above
[24] = molecular target: GST-PAR3 PDZ domain 3, clone #182.1 (human); assay: as above
[25] = molecular target: GST-SITAC-18 PDZ domain 1 (human); assay: as above
[26] = molecular target: GST-Shank 1 PDZ domain 1 (human); assay: as above
[27] = molecular target: GST-Shank 3 PDZ domain 1 (human); assay: as above
[28] = molecular target: GST-Syntrophin gamma 1 PDZ domain 1 (human); assay: as above
[29] = molecular target: GST-ZO-1 PDZ domain 1 (human); assay: as above

GST-DLG3 PDZ domains 1-2 (human), Q92796, sequence (Q92796 other isoform, or with tags, fused parts or gaps limits assumed): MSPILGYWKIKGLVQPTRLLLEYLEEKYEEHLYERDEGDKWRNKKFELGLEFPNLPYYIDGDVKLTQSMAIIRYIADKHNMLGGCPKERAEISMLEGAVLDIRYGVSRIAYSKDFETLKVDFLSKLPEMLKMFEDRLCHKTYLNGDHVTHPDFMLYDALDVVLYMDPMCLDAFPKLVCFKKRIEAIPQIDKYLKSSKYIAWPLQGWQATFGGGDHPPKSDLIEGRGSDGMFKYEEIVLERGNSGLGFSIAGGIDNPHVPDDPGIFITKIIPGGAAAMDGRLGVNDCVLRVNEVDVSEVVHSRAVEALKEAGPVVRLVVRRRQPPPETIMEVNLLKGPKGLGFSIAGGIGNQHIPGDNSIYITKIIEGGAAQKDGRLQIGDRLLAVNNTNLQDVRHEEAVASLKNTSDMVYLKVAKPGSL

B1: HPV16 E6 C-terminal PDZ ligand peptide (20 mer, biotinylated), P03126 139-158 (peptide)
peptide: WTGRCMSCCRSSRTRRETQL
modifications: not fully specified; cysteine pairing not given here
Question: Which EC50 [1] does the source give for B1 here?
Answer: Its EC50 is 1600 nM.

Question: And the EC50 [2]?
Answer: Its EC50 is 3800 nM.

Question: What about the EC50 [3] of the same binder?
Answer: The EC50 was 56 nM.

Question: What about the EC50 [4] of the same binder?
Answer: Its EC50 is 6800 nM.

Question: And the EC50 [5]?
Answer: Its EC50 is 1000 nM.

Question: What about the EC50 [6] of the same binder?
Answer: Its EC50 is 580 nM.

Question: And the EC50 [7]?
Answer: Its EC50 is 1200 nM.

Question: And the EC50 [8]?
Answer: Its EC50 is 7500 nM.

Question: What about the Ave OD [9] of the same binder?
Answer: Its Ave OD is 0.36 A450 nm.

Question: What about the OD S/N (ratio to GST only well) [9] of the same binder?
Answer: Its OD S/N (ratio to GST only well) is 1.15.

Question: And the Ave OD [10]?
Answer: The Ave OD was 0.391 A450 nm.

Question: And the OD S/N (ratio to GST only well) [10]?
Answer: The OD S/N (ratio to GST only well) was 2.98.

Question: What about the Ave OD [11] of the same binder?
Answer: Its Ave OD is 0.381 A450 nm and 0.355 A450 nm.

Question: What about the OD S/N (ratio to GST only well) [11] of the same binder?
Answer: The OD S/N (ratio to GST only well) was 1.94 and 2.28.

Question: What about the Ave OD [12] of the same binder?
Answer: Its Ave OD is 0.432 A450 nm.

Question: And the OD S/N (ratio to GST only well) [12]?
Answer: The OD S/N (ratio to GST only well) was 2.05.

Question: And the Ave OD [13]?
Answer: The Ave OD was 0.423 A450 nm.

Question: What about the OD S/N (ratio to GST only well) [13] of the same binder?
Answer: The OD S/N (ratio to GST only well) was 2.9.

Question: And the Ave OD [14]?
Answer: The Ave OD was 0.449 A450 nm.

Question: What about the OD S/N (ratio to GST only well) [14] of the same binder?
Answer: Its OD S/N (ratio to GST only well) is 2.77.

Question: And the Ave OD [15]?
Answer: The Ave OD was 0.461 A450 nm.

Question: And the OD S/N (ratio to GST only well) [15]?
Answer: Its OD S/N (ratio to GST only well) is 2.24.

Question: And the Ave OD [16]?
Answer: Its Ave OD is 0.413 A450 nm.

Question: What about the OD S/N (ratio to GST only well) [16] of the same binder?
Answer: The OD S/N (ratio to GST only well) was 1.34.

Question: And the Ave OD [17]?
Answer: Its Ave OD is 0.388 A450 nm.

Question: And the OD S/N (ratio to GST only well) [17]?
Answer: Its OD S/N (ratio to GST only well) is 1.58.

Question: And the Ave OD [18]?
Answer: The Ave OD was 0.374 A450 nm.

Question: And the OD S/N (ratio to GST only well) [18]?
Answer: The OD S/N (ratio to GST only well) was 2.46.

Question: What about the Ave OD [19] of the same binder?
Answer: Its Ave OD is 0.38 A450 nm.

Question: And the OD S/N (ratio to GST only well) [19]?
Answer: Its OD S/N (ratio to GST only well) is 2.34.

Question: What about the Ave OD [20] of the same binder?
Answer: Its Ave OD is 0.44 A450 nm.

Question: What about the OD S/N (ratio to GST only well) [20] of the same binder?
Answer: Its OD S/N (ratio to GST only well) is 3.96.

Question: And the Ave OD [21]?
Answer: The Ave OD was 0.347 A450 nm.

Question: What about the OD S/N (ratio to GST only well) [21] of the same binder?
Answer: Its OD S/N (ratio to GST only well) is 2.44.

Question: And the Ave OD [22]?
Answer: Its Ave OD is 0.449 A450 nm.

Question: What about the OD S/N (ratio to GST only well) [22] of the same binder?
Answer: The OD S/N (ratio to GST only well) was 1.6.

Question: And the Ave OD [23]?
Answer: Its Ave OD is 0.352 A450 nm.

Question: And the OD S/N (ratio to GST only well) [23]?
Answer: The OD S/N (ratio to GST only well) was 3.17.

Question: And the Ave OD [24]?
Answer: Its Ave OD is 0.445 A450 nm.

Question: And the OD S/N (ratio to GST only well) [24]?
Answer: Its OD S/N (ratio to GST only well) is 2.07.

Question: And the Ave OD [25]?
Answer: Its Ave OD is 0.398 A450 nm.

Question: What about the OD S/N (ratio to GST only well) [25] of the same binder?
Answer: Its OD S/N (ratio to GST only well) is 1.63.

Question: And the Ave OD [26]?
Answer: The Ave OD was 0.385 A450 nm.

Question: What about the OD S/N (ratio to GST only well) [26] of the same binder?
Answer: The OD S/N (ratio to GST only well) was 1.71.

Question: What about the Ave OD [27] of the same binder?
Answer: Its Ave OD is 0.396 A450 nm.

Question: And the OD S/N (ratio to GST only well) [27]?
Answer: The OD S/N (ratio to GST only well) was 2.61.

Question: And the Ave OD [28]?
Answer: The Ave OD was 0.358 A450 nm.

Question: And the OD S/N (ratio to GST only well) [28]?
Answer: The OD S/N (ratio to GST only well) was 2.

Question: What about the Ave OD [29] of the same binder?
Answer: The Ave OD was 0.412 A450 nm.

Question: What about the OD S/N (ratio to GST only well) [29] of the same binder?
Answer: Its OD S/N (ratio to GST only well) is 1.83.
